Data taken from the supplement of paper PMC9112550, “Optimization of the antimicrobial peptide Bac7 by deep mutational scanning” (BMC Biology, 2022).

Tested on: Escherichia coli TOP10
Experiment: shrunken log2 fold change of peptide-encoding DNA abundance (4.5 h post-induction vs induction); higher = less antimicrobial activity (less host growth inhibition)
Settings: time post-induction: 4.5 h; library: site-saturation at positions 5, 18, 19, 20
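Note: peptides expressed intracellularly from a pBAD plasmid library in pooled LB shake-flask culture, induced with 0.3% L-arabinose, DNA abundance read by NGS, three biological replicates, DESeq2 with apeglm shrinkage.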

Row | Sequence | shrunken log2 fold change
1 | RRIRGRPPRLPRPRPRPYTTPRP | -0.083
2 | RRIRGRPPRLPRPRPRPRRQPRP | 0.85
3 | RRIRVRPPRLPRPRPRPILTPRP | -0.443
4 | RRIRFRPPRLPRPRPRPFHKPRP | -1.02
5 | RRIRHRPPRLPRPRPRPMVKPRP | -0.0243
6 | RRIRARPPRLPRPRPRPMCEPRP | 0.797
7 | RRIRDRPPRLPRPRPRPAQYPRP | -0.0825
8 | RRIRLRPPRLPRPRPRPQLMPRP | 0.0272
9 | RRIRMRPPRLPRPRPRPWGNPRP | -0.00136
10 | RRIRIRPPRLPRPRPRPGWEPRP | 0.0557
11 | RRIRFRPPRLPRPRPRPSSLPRP | -0.856
12 | RRIRHRPPRLPRPRPRPTHFPRP | 0.176
13 | RRIRRRPPRLPRPRPRPNNWPRP | 0.612
14 | RRIRARPPRLPRPRPRPFSQPRP | -0.0436
15 | RRIRQRPPRLPRPRPRPFNAPRP | -0.233
16 | RRIRLRPPRLPRPRPRPVGPPRP | 0.163
17 | RRIRWRPPRLPRPRPRPVQAPRP | 0.36
18 | RRIRPRPPRLPRPRPRPPTCPRP | 0.051
19 | RRIRGRPPRLPRPRPRPVFFPRP | 0.888
20 | RRIRARPPRLPRPRPRPWMQPRP | -0.152
21 | RRIRWRPPRLPRPRPRPMWFPRP | -0.487
22 | RRIRQRPPRLPRPRPRPETAPRP | 0.159
23 | RRIRLRPPRLPRPRPRPWIIPRP | -0.631
24 | RRIRNRPPRLPRPRPRPDSSPRP | -0.00145
25 | RRIRNRPPRLPRPRPRPSSPPRP | 0.0179

Row | Sequence | shrunken log2 fold change
26 | RRIRLRPPRLPRPRPRPHIGPRP | -0.0255
27 | RRIRMRPPRLPRPRPRPNFSPRP | 0.0634
28 | RRIRNRPPRLPRPRPRPANFPRP | -0.193
29 | RRIRMRPPRLPRPRPRPTPWPRP | 0.844
30 | RRIRIRPPRLPRPRPRPWRGPRP | -0.129
31 | RRIRARPPRLPRPRPRPNYFPRP | -0.251
32 | RRIRPRPPRLPRPRPRPVKHPRP | -0.0566
33 | RRIRFRPPRLPRPRPRPWIQPRP | -0.997
34 | RRIRIRPPRLPRPRPRPQVKPRP | -0.405
35 | RRIRYRPPRLPRPRPRPGAFPRP | -0.805
36 | RRIRCRPPRLPRPRPRPDHVPRP | 0.021
37 | RRIRHRPPRLPRPRPRPGIPPRP | 0.0292
38 | RRIRARPPRLPRPRPRPFDEPRP | 0.194
39 | RRIRMRPPRLPRPRPRPMKEPRP | -0.0707
40 | RRIRFRPPRLPRPRPRPWCMPRP | -0.214
41 | RRIRVRPPRLPRPRPRPHYQPRP | -0.213
42 | RRIRYRPPRLPRPRPRPMPRPRP | 0.0558
43 | RRIRLRPPRLPRPRPRPYFPPRP | -0.802
44 | RRIRNRPPRLPRPRPRPCNNPRP | -0.0122
45 | RRIRKRPPRLPRPRPRPMCEPRP | 0.12
46 | RRIRLRPPRLPRPRPRPVYYPRP | -0.633
47 | RRIRIRPPRLPRPRPRPELFPRP | 0.23
48 | RRIRSRPPRLPRPRPRPVVFPRP | 0.11
49 | RRIRLRPPRLPRPRPRPLMHPRP | 0.0668
50 | RRIRNRPPRLPRPRPRPDDIPRP | 0.0399

Row | Sequence | shrunken log2 fold change
51 | RRIRARPPRLPRPRPRPGTQPRP | 0.316
52 | RRIRTRPPRLPRPRPRPILWPRP | 0.0348
53 | RRIRGRPPRLPRPRPRPPGDPRP | 1.18
54 | RRIRHRPPRLPRPRPRPLLSPRP | -0.0464
55 | RRIRNRPPRLPRPRPRPWRMPRP | 0.0039
56 | RRIRCRPPRLPRPRPRPLPMPRP | 0.074
57 | RRIRFRPPRLPRPRPRPRYRPRP | -0.4
58 | RRIRIRPPRLPRPRPRPSVHPRP | -0.278
59 | RRIRDRPPRLPRPRPRPEGYPRP | 0.585
60 | RRIRFRPPRLPRPRPRPHKSPRP | -0.396
61 | RRIRARPPRLPRPRPRPSNLPRP | -0.39
62 | RRIRARPPRLPRPRPRPELVPRP | 1.3
63 | RRIRTRPPRLPRPRPRPFSSPRP | -0.399
64 | RRIRKRPPRLPRPRPRPFFCPRP | 0.232
65 | RRIRWRPPRLPRPRPRPNDWPRP | 0.00443
66 | RRIRARPPRLPRPRPRPSRRPRP | 0.297
67 | RRIRGRPPRLPRPRPRPEAEPRP | 2.74
68 | RRIRTRPPRLPRPRPRPPVNPRP | 0.0698
69 | RRIRNRPPRLPRPRPRPGAMPRP | 0.101
70 | RRIRSRPPRLPRPRPRPRSPPRP | 0.363
71 | RRIRFRPPRLPRPRPRPFRLPRP | -0.197
72 | RRIRMRPPRLPRPRPRPYWWPRP | 0.0238
73 | RRIRQRPPRLPRPRPRPQKGPRP | 0.011
74 | RRIRTRPPRLPRPRPRPVARPRP | 2.14
75 | RRIRWRPPRLPRPRPRPFLFPRP | 0.095

Row | Sequence | shrunken log2 fold change
76 | RRIRWRPPRLPRPRPRPAFMPRP | 0.0849
77 | RRIRQRPPRLPRPRPRPRLGPRP | 0.272
78 | RRIRHRPPRLPRPRPRPNGLPRP | -0.57
79 | RRIRNRPPRLPRPRPRPGSPPRP | -0.11
80 | RRIRVRPPRLPRPRPRPFALPRP | 0.0564
81 | RRIRRRPPRLPRPRPRPDPRPRP | 0.12
82 | RRIRERPPRLPRPRPRPWMAPRP | -0.0227
83 | RRIRMRPPRLPRPRPRPEFEPRP | -0.0141
84 | RRIRVRPPRLPRPRPRPGLPPRP | 0.113
85 | RRIRPRPPRLPRPRPRPWWLPRP | -0.0379
86 | RRIRSRPPRLPRPRPRPYMVPRP | -0.497
87 | RRIRLRPPRLPRPRPRPKPWPRP | 0.387
88 | RRIRYRPPRLPRPRPRPALRPRP | -0.0531
89 | RRIRTRPPRLPRPRPRPPFCPRP | 0.188
90 | RRIRIRPPRLPRPRPRPPMMPRP | 0.568
91 | RRIRDRPPRLPRPRPRPTAIPRP | 0.394
92 | RRIRCRPPRLPRPRPRPMIGPRP | -0.0953
93 | RRIRLRPPRLPRPRPRPITAPRP | -0.0526
94 | RRIRLRPPRLPRPRPRPQWAPRP | 0.123
95 | RRIRIRPPRLPRPRPRPEYPPRP | -1.05
96 | RRIRFRPPRLPRPRPRPVFVPRP | -0.277
97 | RRIRNRPPRLPRPRPRPWKIPRP | 0.089
98 | RRIRWRPPRLPRPRPRPGTYPRP | -0.127
99 | RRIRWRPPRLPRPRPRPQPIPRP | 0.813
100 | RRIRFRPPRLPRPRPRPFWLPRP | 0.0058

Row | Sequence | shrunken log2 fold change
101 | RRIRKRPPRLPRPRPRPDWIPRP | -0.0252
102 | RRIRARPPRLPRPRPRPFGPPRP | 0.0166
103 | RRIRRRPPRLPRPRPRPQEYPRP | -0.0725
104 | RRIRRRPPRLPRPRPRPMFPPRP | 0.118
105 | RRIRSRPPRLPRPRPRPCDCPRP | -0.239
106 | RRIRCRPPRLPRPRPRPWNRPRP | -0.162
107 | RRIRYRPPRLPRPRPRPGACPRP | -0.497
108 | RRIRARPPRLPRPRPRPSKQPRP | 0.0216
109 | RRIRGRPPRLPRPRPRPWWNPRP | -0.148
110 | RRIRWRPPRLPRPRPRPSTTPRP | 0.221
111 | RRIRVRPPRLPRPRPRPFDDPRP | -0.175
112 | RRIRSRPPRLPRPRPRPGRHPRP | 0.0088
113 | RRIRTRPPRLPRPRPRPPDKPRP | -0.146
114 | RRIRNRPPRLPRPRPRPYSVPRP | -0.0155
115 | RRIRKRPPRLPRPRPRPELNPRP | 2.26
116 | RRIRIRPPRLPRPRPRPNDNPRP | -0.912
117 | RRIRWRPPRLPRPRPRPKSHPRP | 0.249
118 | RRIRYRPPRLPRPRPRPRTQPRP | 0.0444
119 | RRIRSRPPRLPRPRPRPRINPRP | -0.301
120 | RRIRQRPPRLPRPRPRPPIYPRP | -0.129
121 | RRIRPRPPRLPRPRPRPVPQPRP | 0.446
122 | RRIRLRPPRLPRPRPRPNYWPRP | -0.0686
123 | RRIRYRPPRLPRPRPRPHDKPRP | -0.661
124 | RRIRWRPPRLPRPRPRPEGRPRP | 0.65
125 | RRIRARPPRLPRPRPRPLHCPRP | 0.617
